The target of test [1] is CD33 antigen (human) (UniProt P20138).
The target is the same in test [2]. The experiment in a line: competition with 125I-labelled native antibody on HEL 92.1.7 cells; IC50 (reference) / IC50 (sample).
For test [3] the target is unchanged. This is another data set of the same source.
For test [4] the target is unchanged. The source holds these as a separate data set.
Test [5] shares this target. The source holds these as a separate data set.
For test [6] the target is unchanged. The source holds these as a separate data set.
Test [7] has the same target. The source holds these as a separate data set.
For test [8] the target is unchanged. The source holds these as a separate data set.
The target is the same in test [9]. The source holds these as a separate data set.
Test [10] has the same target. This is another data set of the same source.
For test [11] the target is unchanged. This is another data set of the same source.
For test [12] the target is unchanged. The source holds these as a separate data set.

Where two headings read alike, the source gives them in different places.

B1: Conjugate of 4-(2,3-dimethoxy-5-formylphenoxy)butanoic acid (13) condensed with Calicheamicin N-acetyl gamma dimethyl hydrazide and h-P67.6 (antibody, V domains shown)
VH: EVQLVQSGAEVKKPGSSVKVSCKASGYTITDSNIHWVRQAPGQSLEWIGYIYPYNGGTDYNQKFKNRATLTVDNPTNTAYMELSSLRSEDTDFYYCVNGNPWLAYWGQGTLVTVSS
VL: DIQLTQSPSTLSASVGDRVTITCRASESLDNYGIRFLTWFQQKPGKAPKLLMYAASNQGSGVPSRFSGSGSGTEFTLTISSLQPDDFATYYCQQTKEVPWSFGQGTKVEVKR
modifications: drug-linker amide on lysine side chains, sites not stated; drug-linker amide on lysine side chains, sites not stated
In turn, B1 showed an In vitro IC50 (3H-thymidine incorporation) with CD33 antigen (human) [1] of 1.1 ng/mL. Further, in the test with CD33 antigen (human) [2], the Rel. Affinity is 1.16.

B2: Conjugate of 4-(2-chloro-4-formylphenoxy)butanoic acid (25) condensed with Calicheamicin N-acetyl gamma dimethyl hydrazide and h-P67.6 (antibody, V domains shown)
VH: EVQLVQSGAEVKKPGSSVKVSCKASGYTITDSNIHWVRQAPGQSLEWIGYIYPYNGGTDYNQKFKNRATLTVDNPTNTAYMELSSLRSEDTDFYYCVNGNPWLAYWGQGTLVTVSS
VL: DIQLTQSPSTLSASVGDRVTITCRASESLDNYGIRFLTWFQQKPGKAPKLLMYAASNQGSGVPSRFSGSGSGTEFTLTISSLQPDDFATYYCQQTKEVPWSFGQGTKVEVKR
modifications: drug-linker amide on lysine side chains, sites not stated; drug-linker amide on lysine side chains, sites not stated
B2 registered an In vitro IC50 (3H-thymidine incorporation) with CD33 antigen (human) [3] of 0.0071 ng/mL. Further, the Rel. Affinity with CD33 antigen (human) [2] was 0.31.

B3: Conjugate of 4-4-(4-fluorobenzoyl)phenoxy!butanoic acid (21) condensed with Calicheamicin N-acetyl gamma, dimethyl hydrazide and h-P67.6 (antibody, V domains shown)
VH: EVQLVQSGAEVKKPGSSVKVSCKASGYTITDSNIHWVRQAPGQSLEWIGYIYPYNGGTDYNQKFKNRATLTVDNPTNTAYMELSSLRSEDTDFYYCVNGNPWLAYWGQGTLVTVSS
VL: DIQLTQSPSTLSASVGDRVTITCRASESLDNYGIRFLTWFQQKPGKAPKLLMYAASNQGSGVPSRFSGSGSGTEFTLTISSLQPDDFATYYCQQTKEVPWSFGQGTKVEVKR
modifications: drug-linker amide on lysine side chains, sites not stated; drug-linker amide on lysine side chains, sites not stated
Turning to B3, the In vitro IC50 (3H-thymidine incorporation) in the test with CD33 antigen (human) [4] is 63 ng/mL. The Rel. Affinity in the test with CD33 antigen (human) [2] came out at 0.76.

B4: Conjugate of 4-(4-acetyl-2,6-dimethoxyphenoxy)butanoic acid (14) condensed with Calicheamicin N-acetyl gamma dimethyl hydrazide and h-P67.6 (antibody, V domains shown)
VH: EVQLVQSGAEVKKPGSSVKVSCKASGYTITDSNIHWVRQAPGQSLEWIGYIYPYNGGTDYNQKFKNRATLTVDNPTNTAYMELSSLRSEDTDFYYCVNGNPWLAYWGQGTLVTVSS
VL: DIQLTQSPSTLSASVGDRVTITCRASESLDNYGIRFLTWFQQKPGKAPKLLMYAASNQGSGVPSRFSGSGSGTEFTLTISSLQPDDFATYYCQQTKEVPWSFGQGTKVEVKR
modifications: drug-linker amide on lysine side chains, sites not stated; drug-linker amide on lysine side chains, sites not stated
B4: the In vitro IC50 (3H-thymidine incorporation) with CD33 antigen (human) [5] stood at 0.24 ng/mL. In addition, the Rel. Affinity with CD33 antigen (human) [2] amounted to 1.07.

B5: Conjugate of 4-4-(3-oxopropyl)phenoxy!butanoic acid (18) condensed with Calicheamicin N-acetyl gamma dimethyl hydrazide and h-P67.6 (antibody, V domains shown)
VH: EVQLVQSGAEVKKPGSSVKVSCKASGYTITDSNIHWVRQAPGQSLEWIGYIYPYNGGTDYNQKFKNRATLTVDNPTNTAYMELSSLRSEDTDFYYCVNGNPWLAYWGQGTLVTVSS
VL: DIQLTQSPSTLSASVGDRVTITCRASESLDNYGIRFLTWFQQKPGKAPKLLMYAASNQGSGVPSRFSGSGSGTEFTLTISSLQPDDFATYYCQQTKEVPWSFGQGTKVEVKR
modifications: drug-linker amide on lysine side chains, sites not stated; drug-linker amide on lysine side chains, sites not stated
B5 came in with an In vitro IC50 (3H-thymidine incorporation) with CD33 antigen (human) [6] of 1.1 ng/mL. In the test with CD33 antigen (human) [2], this molecule showed a Rel. Affinity of 0.8.

B6: Conjugate of 4-(4-acetylphenyl)-1-piperazinepentanoic acid (22) condensed with Calicheamicin N-acetyl gamma dimethyl hydrazide and h-P67.6 (antibody, V domains shown)
VH: EVQLVQSGAEVKKPGSSVKVSCKASGYTITDSNIHWVRQAPGQSLEWIGYIYPYNGGTDYNQKFKNRATLTVDNPTNTAYMELSSLRSEDTDFYYCVNGNPWLAYWGQGTLVTVSS
VL: DIQLTQSPSTLSASVGDRVTITCRASESLDNYGIRFLTWFQQKPGKAPKLLMYAASNQGSGVPSRFSGSGSGTEFTLTISSLQPDDFATYYCQQTKEVPWSFGQGTKVEVKR
modifications: drug-linker amide on lysine side chains, sites not stated; drug-linker amide on lysine side chains, sites not stated
With B6, the In vitro IC50 (3H-thymidine incorporation) in the test with CD33 antigen (human) [7] was determined as 12 ng/mL. This molecule came in with a Rel. Affinity with CD33 antigen (human) [2] of 0.98.

B7: Conjugate of 11-(4-acetylphenoxy)undecanoic acid (23) condensed with Calicheamicin N-acetyl gamma dimethyl hydrazide and h-P67.6 (antibody, V domains shown)
VH: EVQLVQSGAEVKKPGSSVKVSCKASGYTITDSNIHWVRQAPGQSLEWIGYIYPYNGGTDYNQKFKNRATLTVDNPTNTAYMELSSLRSEDTDFYYCVNGNPWLAYWGQGTLVTVSS
VL: DIQLTQSPSTLSASVGDRVTITCRASESLDNYGIRFLTWFQQKPGKAPKLLMYAASNQGSGVPSRFSGSGSGTEFTLTISSLQPDDFATYYCQQTKEVPWSFGQGTKVEVKR
modifications: drug-linker amide on lysine side chains, sites not stated; drug-linker amide on lysine side chains, sites not stated
In the case of B7, the In vitro IC50 (3H-thymidine incorporation) with CD33 antigen (human) [8] was found to be 0.43 ng/mL. The Rel. Affinity in the test with CD33 antigen (human) [2] was 0.8.

B8: Conjugate of 4-(4-formyl-2-nitrophenoxy)butanoic acid (27) condensed with Calicheamicin N-acetyl gamma dimethyl hydrazide and h-P67.6 (antibody, V domains shown)
VH: EVQLVQSGAEVKKPGSSVKVSCKASGYTITDSNIHWVRQAPGQSLEWIGYIYPYNGGTDYNQKFKNRATLTVDNPTNTAYMELSSLRSEDTDFYYCVNGNPWLAYWGQGTLVTVSS
VL: DIQLTQSPSTLSASVGDRVTITCRASESLDNYGIRFLTWFQQKPGKAPKLLMYAASNQGSGVPSRFSGSGSGTEFTLTISSLQPDDFATYYCQQTKEVPWSFGQGTKVEVKR
modifications: drug-linker amide on lysine side chains, sites not stated; drug-linker amide on lysine side chains, sites not stated
With B8, the In vitro IC50 (3H-thymidine incorporation) with CD33 antigen (human) [9] stood at 0.023 ng/mL. This molecule also showed a Rel. Affinity with CD33 antigen (human) [2] of 1.3.

B9: Conjugate of 4-4-(4-fluorobenzoyl)phenoxy!butanoic acid (21) condensed with Calicheamicin N-acetyl gamma dimethyl hydrazide and h-P67.6 (antibody, V domains shown)
VH: EVQLVQSGAEVKKPGSSVKVSCKASGYTITDSNIHWVRQAPGQSLEWIGYIYPYNGGTDYNQKFKNRATLTVDNPTNTAYMELSSLRSEDTDFYYCVNGNPWLAYWGQGTLVTVSS
VL: DIQLTQSPSTLSASVGDRVTITCRASESLDNYGIRFLTWFQQKPGKAPKLLMYAASNQGSGVPSRFSGSGSGTEFTLTISSLQPDDFATYYCQQTKEVPWSFGQGTKVEVKR
modifications: drug-linker amide on lysine side chains, sites not stated; drug-linker amide on lysine side chains, sites not stated
In turn, B9 showed an In vitro IC50 (3H-thymidine incorporation) with CD33 antigen (human) [10] of 99 ng/mL. In the test with CD33 antigen (human) [2], this molecule registered a Rel. Affinity of 0.67.

B10: Conjugate of 4-(2-acetyl-5-methoxyphenoxy!butanoic acid (17) condensed with Calicheamicin N-acetyl gamma dimethyl hydrazide and h-P67.6 (antibody, V domains shown)
VH: EVQLVQSGAEVKKPGSSVKVSCKASGYTITDSNIHWVRQAPGQSLEWIGYIYPYNGGTDYNQKFKNRATLTVDNPTNTAYMELSSLRSEDTDFYYCVNGNPWLAYWGQGTLVTVSS
VL: DIQLTQSPSTLSASVGDRVTITCRASESLDNYGIRFLTWFQQKPGKAPKLLMYAASNQGSGVPSRFSGSGSGTEFTLTISSLQPDDFATYYCQQTKEVPWSFGQGTKVEVKR
modifications: drug-linker amide on lysine side chains, sites not stated; drug-linker amide on lysine side chains, sites not stated
Consider B10, for which, in the test with CD33 antigen (human) [11], the In vitro IC50 (3H-thymidine incorporation) was found to be 0.088 ng/mL. The molecule also returned a Rel. Affinity in the test with CD33 antigen (human) [2] of 0.98.

B11: Conjugate of 4-(4-acetyl-2-methoxyphenoxy)butanoic acid (15) condensed with Calicheamicin N-acetyl gamma dimethyl hydrazide and h-P67.6 (antibody, V domains shown)
VH: EVQLVQSGAEVKKPGSSVKVSCKASGYTITDSNIHWVRQAPGQSLEWIGYIYPYNGGTDYNQKFKNRATLTVDNPTNTAYMELSSLRSEDTDFYYCVNGNPWLAYWGQGTLVTVSS
VL: DIQLTQSPSTLSASVGDRVTITCRASESLDNYGIRFLTWFQQKPGKAPKLLMYAASNQGSGVPSRFSGSGSGTEFTLTISSLQPDDFATYYCQQTKEVPWSFGQGTKVEVKR
modifications: drug-linker amide on lysine side chains, sites not stated; drug-linker amide on lysine side chains, sites not stated
B11: in the test with CD33 antigen (human) [12], the In vitro IC50 (3H-thymidine incorporation) was 0.23 ng/mL. Besides, the Rel. Affinity with CD33 antigen (human) [2] was determined as 0.78.
